Test results published in patent publication US20250101086A1 (RESEARCH FOUNDATION OF THE CITY UNIVERSITY OF NEW YORK, published 2025).

T1: IR6 peptide (Borrelia burgdorferi strain B31, biotin-labeled on the N terminus)
T1 construct: Synthetic peptide based on VlsE of strain B31 (GenBank U76405); also called invariant region 6
T1 peptide: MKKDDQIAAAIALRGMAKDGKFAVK

T2: IR4 peptide (Borrelia burgdorferi strain B31, biotin-labeled on the N terminus)
T2 construct: also called invariant region 4
T2 peptide: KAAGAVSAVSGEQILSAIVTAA

B1: 1D11 recombinant monoclonal antibody (re-cloned from the second most abundant VH and VL sequences) (antibody, V domains shown)
VH: QSLVESGGGLVQPEGSLTLTCKASGFSFSSGYDMCWVRQAPGKGLEYIACIDAGDDITHYASWVKGRFTVSKTSSTTVTLQLNSLTVADTATYFCGRFWDLWGPGTLVTVSS
VL: SVLTQTPSPVSAAVGGTVTINCQSSQSVYDSTWLGWYQQKPGQPPKLLIYKASNLASGVPSRFKGSGSGTHFTLTISDLECDDAATYYCVGGYSGSVDNWAFGGGTEVVVK
notes: Rabbit recombinant monoclonal IgG; the rabbit constant regions are cited to the literature; The variable fragments were cloned into pcDNA3.4 and expressed in mouse cells; also called ID11; new rMAb
B2: antibody with VH SEQ ID NO: 5 and VL SEQ ID NO: 6 (antibody, V domains shown)
VH: QSVEESGGRLVTPGTPLTLTCTVSGFPLSSYSMAWVRQAPGKGLEYIGFINTDGSAYYASWAKGRITISKTSTTVELKITSPTTEDTATYFCGTGNIWGPGTLVTVSS
VL: AQVLTQTPSSVSAAVGGTVTINCQASQSVSNNNVLAWFQQKPGQPPKRLIYSALTLDSGVPSRFKGSGSGTHFTLTISGVQCDDAATYYCAGGYDCSSNDCIAFGGGTEVVVK
B3: antibody with VH SEQ ID NO: 7 and VL SEQ ID NO: 8 (antibody, V domains shown)
VH: QSVEESGGRLVTPGTPLTLTCTVSGFSLSSYSMGWVRQAPGKGLEYIGMIISNNSTYYASWAKGRITISKTSTTVELKITSPTTEDTATYFCGTGNIWGPGTLVTVSS
VL: AQVLTQTPASVSAAVGGTVTINCQASQSTSNNNALAWFQQKPGQPPKRLIYSALTLDSGVPSRFKGSGSGTHFTLTISGVQCDDAATYYCAGGYDCSSNDCITFGGGTEVVVK
B4: antibody with VH SEQ ID NO: 3 and VL SEQ ID NO: 4 (antibody, V domains shown)
VH: QSLEESGGGLFKPTDTLTLTCTVSGIDLSSYAMIWVRQAPGKGLEWIGYIWSSGRIWYASWAKGRFTISRTSTTVDLKLASPTTEDTATYFCARLWDIWGPGTLVTVSS
VL: AQVLTQTPSSVSAAVGGTVTISCQASQSLYNGVNLAWYQQKPGQPPKLLIFGASNLESGVSSRFRGSGSGTQFTLTISGVQCDDAATYYCLGEFSCSSADCLAFGGGTEVVVK

Columns and labels:
IR6 peptide = target: T1, IR6 peptide; experiment: ELISA of purified rMAb on coated peptide
[1] = target: T3, recombinant VlsE protein (of strain B31) (Borrelia burgdorferi strain B31); experiment: titration on VlsE, given as ED50; method not given
T3 construct: domain: vlsE cassette region (including the IR1 through VR6 regions); Preparation of about 65% purity; Used as immunogen, as ELISA antigen and on beads; also called VISE; recombinant B31 VlsE

IR4 peptide = target: T2, IR4 peptide; experiment: not given; it says that supporting data are given elsewhere in the disclosure (ELISA)

| Binder | binding result (IR6 peptide) | EC50 [1] | binding result (IR4 peptide) |
| --- | --- | --- | --- |
| B1 | binds | 0.0109 µg/mL | – |
| B2 | – | – | binds |
| B3 | – | – | binds |
| B4 | – | – | binds |
